{"source": "paper PMC5945002", "biological_target": "BrvH, flavin-dependent halogenase (predicted gene 12 of the Botany Bay metagenome) (Brevundimonas BAL3 (most likely; gene found in the Botany Bay metagenome))", "test": "SEC; 16/60 Superdex 200, 10 mM Tris 20 mM NaCl pH 8, 4 °C, flow rate 1 mL/min; last step of the purification for crystallisation"}
{"substance": "BrvH, flavin-dependent halogenase (predicted gene 12 of the Botany Bay metagenome) (enzyme)", "values": [{"measurement": "stoichiometry N", "value": 2}]}
